From patent publication US11840557B2, “Wnt7 variants capable of activating g-protein coupled receptor (Gpr)124/Reck/frizzled/lipoprotein receptor-related protein (LRP)-mediated Wnt signaling” (UNIVERSITÉ LIBRE DE BRUXELLES, priority 2018, dated 2023)

Legend:
HA-Reck = target: T1, HA-Reck (Homo sapiens, UniProt O95980); assay: Proximity ligation assay (PLA), anti-V5/anti-HA, V5-tagged Wnt ligand and HA-Reck in GPR124−/−;RECK−/− cells; format: cell-based; settings: GPR124−/−;RECK−/− cells co-expressing HA-Reck
T1 construct: expressed in transfected cells; host or cells: GPR124-/-;RECK-/- HEK293 (STF) cells, pCS2 / CMV promoter
T1 sequence (O95980 23-942): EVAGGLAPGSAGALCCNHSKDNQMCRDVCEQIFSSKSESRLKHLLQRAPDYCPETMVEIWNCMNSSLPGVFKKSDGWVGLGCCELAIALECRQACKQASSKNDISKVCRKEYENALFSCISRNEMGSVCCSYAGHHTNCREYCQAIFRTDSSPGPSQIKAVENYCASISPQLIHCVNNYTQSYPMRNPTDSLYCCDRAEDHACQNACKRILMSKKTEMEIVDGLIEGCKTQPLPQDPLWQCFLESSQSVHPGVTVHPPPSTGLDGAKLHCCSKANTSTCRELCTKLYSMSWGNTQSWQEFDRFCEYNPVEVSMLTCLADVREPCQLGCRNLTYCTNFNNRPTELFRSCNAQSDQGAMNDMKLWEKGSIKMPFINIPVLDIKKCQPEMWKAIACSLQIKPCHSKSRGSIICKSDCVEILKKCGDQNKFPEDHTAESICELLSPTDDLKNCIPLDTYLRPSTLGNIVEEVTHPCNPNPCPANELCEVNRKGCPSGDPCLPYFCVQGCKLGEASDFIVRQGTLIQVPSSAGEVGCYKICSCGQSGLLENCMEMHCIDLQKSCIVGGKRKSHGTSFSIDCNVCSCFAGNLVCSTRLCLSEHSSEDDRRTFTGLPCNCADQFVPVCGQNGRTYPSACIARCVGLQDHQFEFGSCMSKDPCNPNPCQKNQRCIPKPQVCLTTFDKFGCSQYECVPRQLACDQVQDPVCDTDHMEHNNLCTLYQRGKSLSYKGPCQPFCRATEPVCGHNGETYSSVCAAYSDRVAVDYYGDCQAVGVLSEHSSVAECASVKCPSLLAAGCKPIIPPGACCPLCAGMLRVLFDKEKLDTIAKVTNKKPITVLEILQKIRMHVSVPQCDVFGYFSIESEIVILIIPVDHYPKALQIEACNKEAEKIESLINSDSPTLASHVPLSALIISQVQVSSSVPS
Protocol: 1.7. Immunofluorescence and Proximity Ligation Assay Cells were grown in glass-coated chambers (IBIDI, Martinsried, Germany) and transfected after 24 h with Lipofectamine 2000 (Life Technologies, Carlsbad, Calif.). Cells were fixed with 4% paraformaldehyde for 10 min at room temperature (RT) 48 h post transfection. For immunofluorescence staining (IF), cells were blocked in 1% BSA-PBS for 30 min before being exposed to primary antibodies for 1 h at RT. After three PBS washes, cells were incubated with secondary antibodies for 1 h at RT. For anti-V5 staining of Wnt ligands, cells were additionally washes for 10 min in PBS 0.1% Tween 20 before incubation with the secondary antibody solution. For the proximity ligation assay (PLA) (Sigma-Aldrich, St. Louis, Mo.), cells were blocked for 30 min at 37° C. with the Blocking solution provided by the manufacturer before being incubated with the primary antibodies for 1 h at RT. Cells were washed three times and incubated with the PLA probes anti-rabbit PLUS and anti-mouse MINUS for 1 h at 37° C. After two PBS washes, cells were incubated with the Duolink Ligation solution for 30 min at 37° C. After two PBS washes, cells were incubated with the Duolink Amplification solution for 100 min at 37° C. The following antibodies were used: mouse monoclonal anti-V5 (R96025, Life Technologies, Carlsbad, Calif.) at 1:500 for IF and PLA, purified polyclonal rabbit anti-HA (H6908, St. Louis, Mo.) at 1:400 for IF and PLA and anti-mouse Alexa488-conjugated secondary antibody (Thermo Fisher Scientific, Waltham, Mass.) at 1:5000. Cells were stained for 2 min with Hoechst diluted to 10 μg ml-1 in PBS.
Cells and zebrafish embryos were imaged with an LSM710 confocal microscope and images were processed in ImageJ. Images of eye fusion phenotypes were taken on Leica M165 FC. Representations of brain vasculature were generated using Imaris software (BitPlane, Zurich, Switzerland). The percentage of PLA positive (PLA+) areas and DAPI positive (DAPI+) areas were calculated using ImageJ on images containing about 50 to 100 cells. The PLA+ area was measured after manually applying a fixed threshold. The DAPI+ area was measured after applying the “default” thresholding method in Image J.

all 10 Fz genes = assay: STF luciferase assay after co-transfection with all 10 Fz genes, no Gpr124/Reck; format: cell-based; settings: in the absence of Gpr124/Reck
Protocol: Cells were plated into 96-well plates and transfected after 24 h in triplicate with Lipofectamine 2000 (Invitrogen, Carlsbad, Calif.). The amount of plasmid DNA transfected per well was optimized for each expression vector: Renilla luciferase (0.5 ng), Wnt (20 ng), Fz (5 ng), LRP (2.5 ng), Gpr124 (10 ng), Reck (10 ng) unless otherwise indicated. The total amount of DNA was adjusted to 100 ng per well with the empty pCS2 vector. Cells were harvested in passive lysis buffer (E1960, Promega, Wisconsin) and the activities of the Firefly and Renilla luciferases were measured sequentially using the Dual-Luciferase Reporter Assay system (E1960, Promega, Madison, Wis.) 48 h post-transfection.

wnt7aa morphants = assay: Trunk DRG rescue in wnt7aa morphant zebrafish larvae; format: in vivo, Danio rerio; settings: 100 pg mRNA injection, 72 hpf
Protocol: Zebrafish (Danio rerio) were raised and handled under standard conditions following the rules of the State of Belgium (protocol approval number: CEBEA-IBMM-2017-22:65). The following line was used: Tg(−17.0neurog1:EGFP)^w61 (McGraw et al., J. Neurosci 28(47):12558-69 (2008)).
The following splice-blocking morpholino (MOs) (GeneTools, Eugene, OR) were injected into embryos at the one-cell stage: wnt7aa ([…], 6 ng) (SEQ ID NO.: 123). Synthetic mRNAs were transcribed from pCS2 plasmids after NotI digestion using the mMessage mMachine SP6 Kit (Ambion, Carlsbad, CA) and injected into one-cell stage zebrafish embryo. For Xenopus laevis microinjection, 15 pg of wnt7a or wnt7a^K190A or wnt7a^1-278 mRNA were injected into one ventral blastomere of the four-cell stage embryo.
zebrafish embryos were imaged with an LSM710 confocal microscope and images were processed in ImageJ. Images of zebrafish development phenotypes were taken on Leica M165 FC. Xenopus larvae were imaged with an Olympus SZX16.

B1: Wnt7a^1-278: the N-terminal domain of Wnt7a, single domain truncated variant (protein)
chain: LGASIICNKIPGLAPRQRAICQSRPDAIIVIGEGSQMGLDECQFQFRNGRWNCSALGERTVFGKELKVGSREAAFTYAIIAAGVAHAITAACTQGNLSDCGCDKEKQGQYHRDEGWKWGGCSADIRYGIGFAKVFVDAREIKQNARTLMNLHNNEAGRKILEENMKLECKCHGVSGSCTTKTCWTTLPQFRELGYVLKDKYNEAVHVEPVRASRNKRPTFLKIKKPLSYRKPMDTDLVYIEKSPNYC
modifications: left off: small tags and cut ends
notes: the N-terminal domain of Wnt7a, single domain truncated variant
B1 was tested, and the “Reck binding (anti-V5/anti-HA PLA signal)” value (HA-Reck) was “still binds Reck”, the “Reck binding (anti-V5/anti-HA PLA signal)” value (HA-Reck; listed as Wnt7a^NTD) was “bound to Reck as potently as full-length Wnt7a” and the “signaling through any Fz” value (all 10 Fz genes) was “failed to signal through any Fz”. The DRG rescue (wnt7aa morphants) was “significant DRG rescues”.
